Reference: US20080292615
Substitutions are numbered along the chain they refer to.

Tests used:
[1] = test system: T1, Peptide P1 (corneodesmosin fragment with L at position 40 of L20815)
T1 sequence: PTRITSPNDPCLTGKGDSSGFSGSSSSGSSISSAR

[2] = test system: T2, Peptide P2 (corneodesmosin fragment with F at position 40 of L20815)
T2 sequence: T1 sequence with L12F

chymotrypsin was tested, and the “products of proteolysis after exposure of the peptide to chymotrypsin” value [1] was “peptide P1 with L at position 40 of L20815 gives two products of proteolysis: PTRITSPNDPCL40TGKGDSSGF (SEQ ID NO 23) and SGSSSSGSSISSAR (SEQ ID NO 24)” and the “products of proteolysis after exposure of the peptide to chymotrypsin” value [2] was “peptide P2 with F at position 40 of L20815 gives three small peptides PTRITSPNDPCF (SEQ ID NO 25), TGKGDSSGF (SEQ ID NO 26) and SGSSSSGSSISSAR (SEQ ID NO 24)”.
